Reference: US20240358826A1 (ORIONIS BIOSCIENCES, published 2024)

Biological target: human CD8 alpha (human, UniProt P01732 22-235)
Assay: cell-based or functional assay

Sequence of human CD8 alpha (P01732 22-235): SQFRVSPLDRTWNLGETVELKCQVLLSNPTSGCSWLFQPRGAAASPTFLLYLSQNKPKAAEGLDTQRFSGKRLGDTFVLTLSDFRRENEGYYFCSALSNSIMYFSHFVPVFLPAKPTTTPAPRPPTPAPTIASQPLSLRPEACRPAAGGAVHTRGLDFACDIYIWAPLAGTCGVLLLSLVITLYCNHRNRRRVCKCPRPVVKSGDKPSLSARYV

Binder	EC50, CD8+ HekBlue-IL-1β cells (SEAP) [ng/mL]
hCD8 VHH 1CDA65_20GGS_IL1α delta 1-6_1GGS_9xhis (other) QVQLQESGGGLVQPGGSLRLSCAASGSIFSINVMGWYRQTPGKERELVAKITNFGITSYADSAQGRFTISRGNAKNTVYLQMNSLKPEDTAVYYCNLDTTGWGPPPYQYWGQGTQVTVSSVDGGSGGSGGSGGSGGSGGSGGSGGSGGSGGSGGSGGSGGSGGSGGSGGSGGSGGSGGSGGSLSNVKYNFMRIIKYEFILNDALNQSIIRANDQYLTAAALHNLDEAVKFDMGAYKSSKDDAKITVILRISKTQLYVTAQDEDQPVLLKEMPEIPKTITGSETNLLFFWETHGTKNYFTSVAHPNLFIATKQDYWVCLAGGPPSITDFQILENQAGGSHHHHHHHHH	~0.3
IL1α delta 1-6_20GGS_hCD8 VHH 1CDA65_1GGS_9xhis (other) LSNVKYNFMRIIKYEFILNDALNQSIIRANDQYLTAAALHNLDEAVKFDMGAYKSSKDDAKITVILRISKTQLYVTAQDEDQPVLLKEMPEIPKTITGSETNLLFFWETHGTKNYFTSVAHPNLFIATKQDYWVCLAGGPPSITDFQILENQAGGSGGSGGSGGSGGSGGSGGSGGSGGSGGSGGSGGSGGSGGSGGSGGSGGSGGSGGSGGSQVQLQESGGGLVQPGGSLRLSCAASGSIFSINVMGWYRQTPGKERELVAKITNFGITSYADSAQGRFTISRGNAKNTVYLQMNSLKPEDTAVYYCNLDTTGWGPPPYQYWGQGTQVTVSSVDGGSHHHHHHHHH	~0.3
